In data set [1] the target is BanLec D133G. The data set can be described thus: native MS.
Data set [2] deals with BanLec (Musa acuminata, UniProt O22321). The experiment in a line: HPLC depletion assay of released gp120. The following applies: 2-AB labelled gp120 N-glycans, 0-50 μM BanLec. The data set is classed as binding.
For data set [3], the target named is BanLec (UniProt Q8L5H4). The experiment in a line: SEC-MALS.
Data set [4] addresses BanLec (UniProt Q8L5H4). The data set can be described thus: native MS.
Data set [5] concerns the target BanLec (UniProt Q8L5H4). The data set can be described thus: ion mobility MS.
Data set [6] deals with BanLec (UniProt Q8L5H4). The experiment in a line: SAXS.
The target of data set [7] is BanLec Y46K. The experiment in a line: native MS.
In data set [8] the target is BanLec D38G. The data set can be described thus: native MS.
The test system of data set [9] is BG505 SOSIP.664. The experiment in a line: Negative-stain electron microscopy of BanLec with soluble Env trimer mimic. Details: species or system HIV. As to conditions: incubation of BanLec with BG505 SOSIP.664.
In data set [10] the test system is HIV fusion to HeLa cells. As to conditions: ref Swanson et al., 2010; cited from earlier work.

Several values for one entry are separate records, joined by “and”; a condition that tells them apart may be missing. Equal entries are not always repeated.

Molecule BanLec D133G (natural protein) had a stoichiometry N in data set [1] of 4.

As for `CC(=O)N[C@H]1[C@H](O[C@H]2[C@H](O)[C@@H](NC(C)=O)C(O)O[C@@H]2CO)O[C@H](CO)[C@@H](O[C@@H]2O[C@H](CO[C@H]3O[C@H](CO[C@H]4O[C@H](CO)[C@@H](O)[C@H](O)[C@@H]4O[C@H]4O[C@H](CO)[C@@H](O)[C@H](O)[C@@H]4O)[C@@H](O)[C@H](O[C@H]4O[C@H](CO)[C@@H](O)[C@H](O)[C@@H]4O[C@H]4O[C@H](CO)[C@@H](O)[C@H](O)[C@@H]4O)[C@@H]3O)[C@@H](O)[C@H](O[C@H]3O[C@H](CO)[C@@H](O)[C@H](O)[C@@H]3O[C@H]3O[C@H](CO)[C@@H](O)[C@H](O)[C@@H]3O[C@H]3O[C@H](CO)[C@@H](O)[C@H](O)[C@@H]3O)[C@@H]2O)[C@@H]1O` (some centres unmarked) [Man9], the “depletion of glycan upon addition of BanLec” value in [2] is recorded as “decreased considerably”.

As for Man5, the “depletion of glycan upon addition of BanLec” value in data set [2] is listed as “not depleted”.

Turning to “BanLec (from UniProt Q8L5H4 1-141) (natural protein)”, the stoichiometry N in data set [3], in [4], in data set [5] and in data set [6] was 4 throughout.

Consider BanLec Y46K (natural protein), for which the stoichiometry N in data set [7] is 2 and 4.

Turning to BanLec D38G (natural protein), in data set [8], the stoichiometry N came to 4.

B1: BanLec: recombinant tetrameric plant (banana) lectin with anti-HIV activity, expressed in E. coli (protein)
chain: MNGAIKVGAWGGNGGSAFDMGPAYRIISVKIFSGDVVDAVDVTFTYYGKTETRHFGGSGGTPHEIVLQEGEYLVGMKGEFGNYHGVVVVGKLGFSTNKKSYGPFGNTGGTPFSLPIAAGKISGFFGRGGDFIDAIGVYLEP
modifications: left off: polyhistidine tag, N-terminal, cleaved
Take B1: the “effect on soluble Env trimer mimic by negative-stain EM” value in [9] is “aggregation”. The “IC50, inhibition of HIV fusion to HeLa cells” value in [10] was “low-nanomolar range”.

(Values after paper PMC5556678 (Structure (London, England : 1993), 2017).)
